From patent US20140099299A1 (UAB RESEARCH FOUNDATION, published 2014)
Substitutions are numbered along the chain they refer to. Names may count otherwise.

T1: human IL-10R1 chain coupled to agarose beads (human, UniProt Q13651 22-235)
T1 construct: also called HuIL-10R1 coupled beads; human IL-10R1 beads
T1 sequence: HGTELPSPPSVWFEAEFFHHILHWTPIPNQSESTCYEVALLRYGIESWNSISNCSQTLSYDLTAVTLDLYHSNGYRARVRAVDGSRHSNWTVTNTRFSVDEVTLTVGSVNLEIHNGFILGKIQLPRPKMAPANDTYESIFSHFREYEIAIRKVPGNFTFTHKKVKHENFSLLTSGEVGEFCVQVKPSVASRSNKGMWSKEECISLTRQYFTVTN

T2: human IL-10R1 chain on transfected TF-1 cells (TF-1/HuIL-10R1) (human, UniProt Q13651 22-578)
T2 sequence: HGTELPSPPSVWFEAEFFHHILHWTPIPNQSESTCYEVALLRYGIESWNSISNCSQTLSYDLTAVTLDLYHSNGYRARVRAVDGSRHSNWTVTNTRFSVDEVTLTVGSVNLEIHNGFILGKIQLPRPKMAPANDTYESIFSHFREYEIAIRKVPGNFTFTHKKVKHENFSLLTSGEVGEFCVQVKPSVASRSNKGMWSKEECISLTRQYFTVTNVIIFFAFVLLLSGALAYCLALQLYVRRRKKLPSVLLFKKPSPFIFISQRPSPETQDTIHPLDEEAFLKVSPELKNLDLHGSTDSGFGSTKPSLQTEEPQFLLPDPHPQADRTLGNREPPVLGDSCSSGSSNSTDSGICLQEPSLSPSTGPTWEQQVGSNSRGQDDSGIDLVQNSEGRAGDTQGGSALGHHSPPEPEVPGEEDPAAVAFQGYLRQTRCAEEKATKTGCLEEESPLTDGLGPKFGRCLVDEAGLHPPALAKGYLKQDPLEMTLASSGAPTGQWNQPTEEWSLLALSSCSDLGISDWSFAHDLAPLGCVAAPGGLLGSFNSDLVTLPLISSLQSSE

B1: H6FXa-rhcmvIL-10 Arg-34Glu point mutant (R63E of SEQ ID NO:1) (ligand)
chain: PPHHHHHHSDIEGRAHDHEHKEVPPACDPVHGNLAGIFKELRATYASIEEGLQKKDTVYYTSLFNDRVLHEMLSPMGCRVTNELMEHYLDGVLPRASHLDYDNSTLNGLHVFASSMQALYQHMLKCPALACTGKTPAWMYFLEVEHKLNPWRGTAKAAAEADLLLNYLETFLLQF
notes: Tested as Drosophila cell supernatant; Its exact end in pAHF cannot be seen because the underlining is lost; also called R34E; Lys-34Glu
B2: H6FXa-rhcmvIL-10 Gln-38Arg point mutant (Q67R of SEQ ID NO:1) (ligand)
chain: B1 chain with E49R, Q53R
notes: Tested as Drosophila cell supernatant; also called Q38R
B3: H6FXa-rhcmvIL-10 Asp-144His point mutant (D176H of SEQ ID NO:1) (ligand)
chain: B1 chain with E49R, D162H
notes: Tested as Drosophila cell supernatant; also called D144H

Key:
[1] = biological target: T1, human IL-10R1 chain coupled to agarose …; experiment: pull-down of 500 µL Drosophila medium with 15 µL HuIL-10R1-coupled agarose beads, Coomassie-stained SDS-PAGE
[2] = biological target: T2, human IL-10R1 chain on transfected TF-1 …; experiment: cell-based or functional assay

Row | Binder | binding result [1] | proliferation of TF-1/HuIL-10R1 cells [2]
1 | B1 | no binding | 
2 | B2 | no binding | ~100 fold reduction in activity
3 | B3 | no binding | ~300 fold reduction in activity
